Consider one molecule from paper PMC7114414 (Virus Research, 2014).

The assay has as its target T1, HR2P-FITC (HR2P peptide labeled with FITC) (MERS-CoV, UniProt K9N5Q8 1251-1286).
T1 peptide: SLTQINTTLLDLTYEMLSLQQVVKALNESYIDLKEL
Description: native gel or EMSA.

B1: HR1P peptide (residues 998-1039 of the MERS-CoV S protein, HR1 domain of the S2 subunit) (peptide)
peptide: ANKFNQALGAMQTGFTTTNEAFHKVQDAVNNNAQALSKLASE
As for B1, the binding result is “binds”.
